Measured values reported in US20200270627A1 (COMMONWEALTH SCIENTIFIC AND INDUSTRIAL RESEARCH ORGANISATION, published 2020).

T1: RGA4 1-171:CFP (rice, UniProt F7J0M4 1-171)
T1 construct: not shown: C-terminal CFP tag
T1 sequence (looked up): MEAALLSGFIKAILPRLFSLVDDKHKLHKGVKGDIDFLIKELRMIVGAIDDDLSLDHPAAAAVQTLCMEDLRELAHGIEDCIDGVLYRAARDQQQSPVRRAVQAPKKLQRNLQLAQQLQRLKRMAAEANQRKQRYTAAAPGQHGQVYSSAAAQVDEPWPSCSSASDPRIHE

B1: Sr33 1-160:HA (other)
chain: MDIVTGAIAKLIPKLGELLVGEYKLHKGVKKNIEDLLKELKTMNAALIKIGEVPPDQLDSQDKLWADEVRELSYVIEDAVDKFLVRVHGVEPDDNTNGFKGLMKRTTKLLKKVVDKHGIAHAIKDIKKELQEVAARRDRNKFDGIASIPTEAIDPRLRAL
notes: also called full CC domain of Sr33 fused to a C-terminal HA tag; not shown: C-terminal HA tag (vector pBIN19-35S::GTW:3HA)
B2: Sr50 1-163:HA (other)
chain: MNIVTGAMGSLIPKLGELLMDEYKLHKRIKKDVEFLKKELESMHAALIKVGEVPRDQLDRQVKLWADEVRELSYNMEDVVDKFLVRVDGDGIQQPHDNSGRFKELKNKMIGLFKKGRNHHRIADAIKEIKEQLQEVAARRDRNKVAVPNPMEPITIDPCLRAL
notes: Transiently expressed in N. benthamiana leaf cells under the 35S promoter; also called full CC domain of Sr50 fused to a C-terminal HA tag; not shown: C-terminal HA tag (vector pBIN19-35S::GTW:3HA)

Biological target: T1, RGA4 1-171:CFP
Assay: co-immunoprecipitation with anti-GFP antibodies from N. benthamiana leaf cells, anti-HA immunoblot

Binder | binding result
B1 | no binding
B2 | no binding
